Data set [1] concerns the molecule itself. Briefly: cryo-EM structure.
Data set [2] has as its target calmodulin (UniProt P0DP23). Briefly: cryo-EM structure.

B1: truncated Xenopus laevis KCNQ1 (residues 67-610), wild type (domain or fragment)
chain: ATDPPRPTINLDPRVSIYSGRRPLLSRTNIQGRVYNFLERPTGWKCFVYHFTVFLIVLICLIFSVLSTIQQYNNLATETLFWMEIVLVVFFGAEYVVRLWSAGCRSKYVGVWGRLRFARKPISVIDLIVVVASVIVLCVGSNGQVFATSAIRGIRFLQILRMLHVDRQGGTWRLLGSVVFIHRQELITTLYIGFLGLIFSSYFVYLAEKDAIDSSGEYQFGSYADALWWGVVTVTTIGYGDKVPQTWIGKTIASCFSVFAISFFALPAGILGSGFALKVQQKQRQKHFNRQIPAAASLIQTAWRCYAAENPDSATWKIYIRKQSRNHHLMSPSPKPKKSAMVKKKKIRTERDEGSTDKMLNIPHITYDHVADDRKNDGYSVESYENTVRKPFGFLDPSTGPFIRTSSFTDDLDMEGDTLLTPITHISELKEHHRAAIKVIRRMQYFVAKKKFQQARKPYDVRDVIEQYSQGHLNLMVRIKELQRRLDQSLGKPSLFLSVSDKVKDKGINTIGSRLNRVEDKVTQMDHKLNLITDMLHHLLTNQQ
As for B1, the “stoichiometry N” value in data set [1] is 4. In addition, the binding result in data set [2] is recorded as “binds”.

B2: Xenopus KCNQ1 E150R/R221E (residues 67-610) (domain or fragment)
chain: ATDPPRPTINLDPRVSIYSGRRPLLSRTNIQGRVYNFLERPTGWKCFVYHFTVFLIVLICLIFSVLSTIQQYNNLATETLFWMRIVLVVFFGAEYVVRLWSAGCRSKYVGVWGRLRFARKPISVIDLIVVVASVIVLCVGSNGQVFATSAIRGIEFLQILRMLHVDRQGGTWRLLGSVVFIHRQELITTLYIGFLGLIFSSYFVYLAEKDAIDSSGEYQFGSYADALWWGVVTVTTIGYGDKVPQTWIGKTIASCFSVFAISFFALPAGILGSGFALKVQQKQRQKHFNRQIPAAASLIQTAWRCYAAENPDSATWKIYIRKQSRNHHLMSPSPKPKKSAMVKKKKIRTERDEGSTDKMLNIPHITYDHVADDRKNDGYSVESYENTVRKPFGFLDPSTGPFIRTSSFTDDLDMEGDTLLTPITHISELKEHHRAAIKVIRRMQYFVAKKKFQQARKPYDVRDVIEQYSQGHLNLMVRIKELQRRLDQSLGKPSLFLSVSDKVKDKGINTIGSRLNRVEDKVTQMDHKLNLITDMLHHLLTNQQ
On to B2, for which the binding result in data set [2] is “binds”.

One may read the stoichiometry N as the number of molecules, sites or subunits per partner or assembly.

The values are drawn from PMC12494784 (Nature Communications, 2025).
